Assay results as given in PMC11074293 (2024).

Experiments:
Assay in all cases: ITC
CUL3^Δ1–24-RBX1 = CUL3^Δ1–24-RBX1 (human, UniProt Q13618 25-768; P62877 1-108)
CUL3^WT-RBX1 = CUL3^WT-RBX1 (human, UniProt Q13618 1-768; P62877 1-108)
CUL3^Δ1–13-RBX1 = CUL3^Δ1–13-RBX1 (human, UniProt Q13618 14-768; P62877 1-108)
Sequence of CUL3^Δ1–13-RBX1 (Q13618 14-768, stated change not applied, chain 1 of 2): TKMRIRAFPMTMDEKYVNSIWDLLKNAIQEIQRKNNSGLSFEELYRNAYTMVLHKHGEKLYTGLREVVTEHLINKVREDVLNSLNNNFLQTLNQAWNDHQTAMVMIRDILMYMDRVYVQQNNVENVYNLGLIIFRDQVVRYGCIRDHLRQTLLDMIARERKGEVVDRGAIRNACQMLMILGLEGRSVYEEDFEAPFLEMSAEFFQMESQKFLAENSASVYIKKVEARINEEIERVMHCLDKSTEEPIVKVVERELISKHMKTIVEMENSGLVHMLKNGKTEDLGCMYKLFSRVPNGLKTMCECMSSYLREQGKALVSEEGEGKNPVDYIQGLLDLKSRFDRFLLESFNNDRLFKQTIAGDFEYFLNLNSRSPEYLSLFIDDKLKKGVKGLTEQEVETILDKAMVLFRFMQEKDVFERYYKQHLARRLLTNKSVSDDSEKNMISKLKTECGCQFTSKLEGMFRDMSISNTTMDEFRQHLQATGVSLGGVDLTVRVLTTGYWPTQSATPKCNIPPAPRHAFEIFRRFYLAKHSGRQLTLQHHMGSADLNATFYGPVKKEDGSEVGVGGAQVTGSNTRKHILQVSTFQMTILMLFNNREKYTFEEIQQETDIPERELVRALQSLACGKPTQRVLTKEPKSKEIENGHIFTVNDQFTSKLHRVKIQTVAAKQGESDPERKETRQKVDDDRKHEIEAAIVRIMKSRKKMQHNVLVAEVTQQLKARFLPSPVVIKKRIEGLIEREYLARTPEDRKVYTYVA
Sequence of CUL3^Δ1–13-RBX1 (P62877 whole entry, stated change not applied, chain 2 of 2): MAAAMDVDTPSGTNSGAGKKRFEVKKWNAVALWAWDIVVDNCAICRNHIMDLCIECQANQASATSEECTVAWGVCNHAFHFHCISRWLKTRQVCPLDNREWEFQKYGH

Sequence of CUL3^Δ1–24-RBX1 (Q13618 25-768, stated change not applied, chain 1 of 2): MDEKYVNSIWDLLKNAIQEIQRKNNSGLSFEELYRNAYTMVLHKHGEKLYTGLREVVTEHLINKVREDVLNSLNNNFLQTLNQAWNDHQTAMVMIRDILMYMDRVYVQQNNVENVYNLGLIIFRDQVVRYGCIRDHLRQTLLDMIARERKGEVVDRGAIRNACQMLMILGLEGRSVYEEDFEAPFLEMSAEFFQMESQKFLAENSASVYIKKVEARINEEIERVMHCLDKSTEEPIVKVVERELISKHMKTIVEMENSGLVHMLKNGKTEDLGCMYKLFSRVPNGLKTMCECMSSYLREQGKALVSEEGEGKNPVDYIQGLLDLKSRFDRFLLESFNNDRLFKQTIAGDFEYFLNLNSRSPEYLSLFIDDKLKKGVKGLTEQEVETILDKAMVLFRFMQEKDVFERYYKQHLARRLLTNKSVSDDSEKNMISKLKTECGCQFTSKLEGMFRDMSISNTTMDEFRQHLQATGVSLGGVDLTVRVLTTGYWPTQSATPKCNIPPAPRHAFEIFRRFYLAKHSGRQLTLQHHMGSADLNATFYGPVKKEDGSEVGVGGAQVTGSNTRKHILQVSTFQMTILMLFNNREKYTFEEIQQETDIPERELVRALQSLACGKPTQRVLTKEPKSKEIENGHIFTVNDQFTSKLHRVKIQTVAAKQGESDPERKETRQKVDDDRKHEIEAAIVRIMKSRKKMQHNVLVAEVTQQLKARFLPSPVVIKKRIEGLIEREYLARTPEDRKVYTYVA
Sequence of CUL3^Δ1–24-RBX1 (P62877 whole entry, stated change not applied, chain 2 of 2): as the sequence (P62877 whole entry, stated change not applied, chain 2 of 2) above
Sequence of CUL3^WT-RBX1 (Q13618 whole entry, chain 1 of 2): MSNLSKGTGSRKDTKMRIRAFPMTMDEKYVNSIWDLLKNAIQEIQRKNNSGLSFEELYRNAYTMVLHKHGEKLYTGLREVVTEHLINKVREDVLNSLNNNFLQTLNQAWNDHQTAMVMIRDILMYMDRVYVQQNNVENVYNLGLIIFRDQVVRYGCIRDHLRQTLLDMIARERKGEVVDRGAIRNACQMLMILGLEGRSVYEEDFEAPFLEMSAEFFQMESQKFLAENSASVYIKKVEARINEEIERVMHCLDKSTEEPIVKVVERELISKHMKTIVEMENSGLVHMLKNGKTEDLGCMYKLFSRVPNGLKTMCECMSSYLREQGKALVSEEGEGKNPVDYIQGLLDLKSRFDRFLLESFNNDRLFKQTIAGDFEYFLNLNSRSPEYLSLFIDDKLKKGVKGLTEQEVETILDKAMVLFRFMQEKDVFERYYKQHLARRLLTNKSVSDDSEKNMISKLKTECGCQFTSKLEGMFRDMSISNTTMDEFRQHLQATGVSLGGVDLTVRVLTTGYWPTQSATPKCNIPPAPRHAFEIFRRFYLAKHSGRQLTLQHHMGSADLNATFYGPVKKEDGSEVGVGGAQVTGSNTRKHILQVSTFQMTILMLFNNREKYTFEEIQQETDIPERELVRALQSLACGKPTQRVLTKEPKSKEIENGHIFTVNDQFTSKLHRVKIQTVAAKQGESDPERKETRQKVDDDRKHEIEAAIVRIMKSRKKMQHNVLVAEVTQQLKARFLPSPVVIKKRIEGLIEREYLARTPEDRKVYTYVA
Sequence of CUL3^WT-RBX1 (P62877 whole entry, chain 2 of 2): as the sequence (P62877 whole entry, stated change not applied, chain 2 of 2) above

B1: KLHL22^1–178 (domain or fragment)
chain: MAEEQEFTQLCKLPAQPSHPHCVNNTYRSAQHSQALLRGLLALRDSGILFDVVLVVEGRHIEAHRILLAASCDYFRGMFAGGLKEMEQEEVLIHGVSYNAMCQILHFIYTSELELSLSNVQETLVAACQLQIPEIIHFCCDFLMSWVDEENILDVYRLAELFDLSRLTEQLDTYILKN
Q: Which Kd (CUL3^Δ1–24-RBX1) does the source give for B1 here?
A: Its Kd is 483 nM.

Q: What about the Kd (CUL3^WT-RBX1) of the same binder?
A: Its Kd is 60 nM.

Q: What about the Kd (CUL3^Δ1–13-RBX1) of the same binder?
A: Its Kd is 176 nM.
